The text below walks through data of US12503511 (COMPASS THERAPEUTICS, dated 2025).

One may read the Kd as the concentration at which binding is half-saturated. Broadly, the EC50 is the midpoint of the concentration-response curve.

For assay [1], the target named is T1, cyno PD-L1 expressed on cells (cynomolgus).
T1 construct: whole, on cells; also called cynomolgus PD-L1
In words: cell binding EC50 on HEK-cyno PD-L1; fold improvement, reference taken as parent mAb24.

In assay [2] the target is T2, murine PD-L1 expressed on cells (murine, UniProt Q9EP73 19-290).
T2 construct: whole, on cells; also called muPDL1; mouse PD-L1
T2 sequence (Q9EP73 19-290): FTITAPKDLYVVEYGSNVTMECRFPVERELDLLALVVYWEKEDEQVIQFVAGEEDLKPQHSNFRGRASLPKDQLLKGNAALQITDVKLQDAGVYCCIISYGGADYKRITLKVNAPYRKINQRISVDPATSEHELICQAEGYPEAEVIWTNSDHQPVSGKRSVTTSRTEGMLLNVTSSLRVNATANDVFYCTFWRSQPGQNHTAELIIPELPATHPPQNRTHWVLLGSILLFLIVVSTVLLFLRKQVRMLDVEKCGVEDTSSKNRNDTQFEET
Put plainly: cell binding titration, A20 cells expressing murine PD-L1.

Assay [3] deals with T3, purified recombinant His tagged human PD-L1 (human, UniProt Q9NZQ7 19-238).
T3 construct: not shown: His tag
T3 sequence (Q9NZQ7 19-238 limits assumed): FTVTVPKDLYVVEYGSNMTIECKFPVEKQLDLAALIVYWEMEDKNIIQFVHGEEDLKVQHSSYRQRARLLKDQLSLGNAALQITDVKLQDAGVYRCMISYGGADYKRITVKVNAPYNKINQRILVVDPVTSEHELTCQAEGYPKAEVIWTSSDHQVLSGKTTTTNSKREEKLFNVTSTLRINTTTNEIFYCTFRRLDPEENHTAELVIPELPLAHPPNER
In words: SPR KD; fold improvement, reference taken as parent mAb24.

The target in assay [4] is T3, purified recombinant His tagged human …. In words: SPR (Carterra MX96), antibody on chip, His-tagged human PD-L1 injected.
Assay [5] addresses T1, cyno PD-L1 expressed on cells. In words: cell binding titration, HEK cells expressing cyno PD-L1.
For assay [6], the target named is T4, human PD-L1 expressed on cells (human, UniProt Q9NZQ7 19-290).
T4 construct: also called huPDL1; human PD-L1 on HEK cells
T4 sequence (Q9NZQ7 19-290 limits assumed): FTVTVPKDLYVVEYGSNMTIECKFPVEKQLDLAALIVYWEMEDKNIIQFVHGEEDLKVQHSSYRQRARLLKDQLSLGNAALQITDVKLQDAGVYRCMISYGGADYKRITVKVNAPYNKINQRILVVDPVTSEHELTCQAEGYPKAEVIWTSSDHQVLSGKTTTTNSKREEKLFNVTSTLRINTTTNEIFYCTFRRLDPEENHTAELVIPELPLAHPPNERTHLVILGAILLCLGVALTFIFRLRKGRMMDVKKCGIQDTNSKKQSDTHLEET
In words: cell binding titration, HEK cells expressing human PD-L1.

Assay [7] concerns the target T4, human PD-L1 expressed on cells. In words: cell binding EC50 on HEK-human PD-L1; fold improvement, reference taken as parent mAb24.
Assay [8] has as its target T2, murine PD-L1 expressed on cells. In words: cell binding EC50 on A20-murine PD-L1; fold improvement, reference taken as parent mAb24.

B1: mAb8 (antibody, V domains shown)
VH: QVQLVQSGAEVKKPGSSVKVSCKASGGTFSSYAINWVRQAPGQGLEWMGGIIPVFGTATYAQKFQGRVTITADESTSTAYMELSSLRSEDTAVYYCARLKFELKDAFDIWGQGTLVTVSS
VL: not shown
On to B1, for which the “Fold Improvement” value in assay [1] was determined as 3.42 fold; in assay [3], 1.2 fold. Moreover, in assay [2], the binding result is “no binding”. Further, in assay [4], the Kd amounted to 3.7 nM. This molecule returned an EC50 in assay [5] of 0.08 nM.

B2: mAb10 (antibody, V domains shown)
VH: QVQLVQSGAEVKKPGSSVKVSCKASGGTFSSYAINWVRQAPGQGLEWMGGIIPVFGTATYAQKFQGRVTITADESTSTAYMELSSLRSEDTAVYYCARLKNELKDAFDIWGQGTLVTVSS
VL: not shown
Regarding B2, the entries for the “Fold Improvement” value in assay [1], in assay [3] and in assay [7] were 3.05 fold, 0.7 fold and 3.2 fold, respectively. In addition, the binding result in assay [2] is recorded as “no binding”. Moreover, the 50% effective concentration (EC50) in assay [6] stood at 0.04 nM; in assay [5] it was 0.09 nM. The equilibrium dissociation constant (Kd) in assay [4] is 6.3 nM.

B3: mAb22 (antibody, V domains shown)
VH: QVQLVQSGAEVKKPGSSVKVSCKASGGTFSSYAINWVRQAPGQGLEWMGGIIPVFGTATYAQKFQGRVTITADESTSTAYMELSSLRSEDTAVYYCARLKGELKDAFDIWGQGTMVTVSS
VL: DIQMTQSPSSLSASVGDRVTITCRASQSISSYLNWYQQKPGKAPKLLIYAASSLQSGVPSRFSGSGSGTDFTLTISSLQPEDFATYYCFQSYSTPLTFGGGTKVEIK
On to B3, for which the “Fold Improvement” value in assay [1] was 0.89 fold; in assay [3] it was 1.8 fold; in assay [7] it was 0.8 fold. Also, in assay [2], the binding result was “no binding”. Further, the EC50 was found to be 0.18 nM in assay [6] and 0.32 nM in assay [5]. Besides, the Kd in assay [4] is 2.5 nM.

B4: mAb9 (antibody, V domains shown)
VH: QVQLVQSGAEVKKPGSSVKVSCKASGGTFSSYAINWVRQAPGQGLEWMGGIIPVFGTATYAQKFQGRVTITADESTSTAYMELSSLRSEDTAVYYCARLKGELKDAFDEWGQGTLVTVSS
VL: not shown
With B4, the “Fold Improvement” value in assay [1] stood at 4.15 fold; in assay [3], 0.8 fold; in assay [7] it was 2.5 fold. Also, the binding result in assay [2] was “no binding”. Further, the EC50 in assay [6] came out at 0.06 nM; in assay [5] it was 0.07 nM. Moreover, the Kd in assay [4] amounted to 5.4 nM.

B5: mAb3 (antibody, V domains shown)
VH: QVQLVQSGAEVKKPGSSVKVSCKASGGTFSSYAINWVRQAPGQGLEWMGGIIPVFGTATYAQKFQGRVTITADESTSTAYMELSSLRSEDTAVYYCARLKGELKDAFDIWGQGTMVTVSS
VL: not shown
In the case of B5, the EC50 in assay [2] was determined as 1.27 nM; in assay [6] it was 0.11 nM. For the same molecule, the “Fold Improvement” value in assay [3] came out at 4.8 fold; in assay [8], 3.08 fold; in assay [7], 1.3 fold. In assay [4], the Kd amounted to 0.9 nM.

B6: mAb18 (antibody, V domains shown)
VH: QVQLVQSGAEVKKPGSSVKVSCKASGGTFSSYAINWVRQAPGQGLEWMGGIIPILGTATYAQKFQGRVTITADESTSTAYMELSSLRSEDTAVYYCARRKGELKDAFDIWGQGTLVTVSS
VL: not shown
Take B6: the “Fold Improvement” value came out at 4.96 fold in assay [1], 4.67 fold in assay [8] and 0.4 fold in assay [7]. The figures for the EC50 in assay [2], in assay [6] and in assay [5] were 0.84 nM, 0.38 nM and 0.06 nM, respectively. The Kd in assay [4] was 527 nM.

B7: mAb6 (antibody, V domains shown)
VH: QVQLVQSGAEVKKPGSSVKVSCKASGGTFSSYAINWVRQAPGQGLEWMGGIIPIFGIANYAQKFQGRVTITADESTSTAYMELSSLRSEDTAVYYCARLKGELKDAFDIWGQGTLVTVSS
VL: not shown
On to B7, for which the “Fold Improvement” value in assay [1] was 0.61 fold; in assay [3], 0.1 fold; in assay [7], 1.1 fold. Moreover, the binding result in assay [2] is on record as “no binding”. In addition, the EC50 stood at 0.13 nM in assay [6] and 0.47 nM in assay [5]. Moreover, in assay [4], the dissociation constant Kd was found to be 35.9 nM.

B8: mAb2 (antibody, V domains shown)
VH: QVQLVQSGAEVKKPGSSVKVSCKASGGTFSSYAINWVRQAPGQGLEWMGGIIPVFGTATYAQKFQGRVTITADESTSTAYMELSSLRSEDTAVYYCARLKGELKDAFDIWGQGTMVTVSS
VL: not shown
In the case of B8, the “Fold Improvement” value stood at 3.76 fold in assay [1], 2 fold in assay [3], 1.96 fold in assay [8] and 2.2 fold in assay [7]. The EC50 in assay [2] stood at 2 nM; in assay [6], 0.06 nM; in assay [5], 0.08 nM. Also, the Kd in assay [4] is 2.2 nM.

B9: mAb5 (antibody, V domains shown)
VH: QVQLVQSGAEVKKPGSSVKVSCKASGGTFSSYAFSWVRQAPGQGLEWMGGIIPVFGTATYAQKFQGRVTITADESTSTAYMELSSLRSEDTAVYYCARLKGELKDAFDIWGQGTLVTVSS
VL: not shown
For B9, the “Fold Improvement” value in assay [1] was determined as 0.74 fold; in assay [3], 0.2 fold; in assay [7], 1.5 fold. Further, the binding result in assay [2] was “no binding”. Moreover, the concentration giving a half-maximal response (EC50) stood at 0.09 nM in assay [6] and 0.39 nM in assay [5]. In addition, in assay [4], the dissociation constant (Kd) was 27.1 nM.

B10: mAb20 (antibody, V domains shown)
VH: QVQLVQSGAEVKKPGSSVKVSCKASGGTFSSYAINWVRQAPGQGLEWMGGIIPIFGKATYAQKFQGRVTITADESTSTAYMELSSLRSEDTAVYYCARRKGELKDAFDIWGQGTLVTVSS
VL: not shown
B10: the “Fold Improvement” value worked out at 2.31 fold in assay [1], 0.1 fold in assay [3], 1.47 fold in assay [8] and 1 fold in assay [7]. Also, the EC50 in assay [2] was found to be 2.66 nM; in assay [6], 0.13 nM; in assay [5], 0.12 nM. The Kd in assay [4] came to 53.9 nM.
